# In patent US10351623B2, “Antagonists of IL-17 isoforms and their uses” (Orega Biotech, priority 2012, dated 2019):
# B1: IL-17E: recombinant human IL-17E (=IL-25), interleukin 17 isoform (protein, UniProt Q9H293 33-177, looked up)
# Interleukin-25: YSHWPSCCPSKGQDTSEELLRWSTVPVPPLEPARPNRHPESCRASEDGPLNSRAISPWRYELDRDLNRLPQDLYHARCLCPHCVSLQTGSHMDPRGNSELLYHNQTVFYRRPCHGEKGTHKGYCLERRLYRVSLACVCVRPRVMG
# B2: IL-17C: recombinant human IL-17C, interleukin 17 isoform that binds IL-17RE (protein)
# chain: HHDPSLRGHPHSHGTPHCYSAEELPLGQAPPHLLARGAKWGQALPVALVSSLEAASHRGRHERPSATTQCPVLRPEEVLEADTHQRSISPWRYRVDTDEDRYPQKLAFAECLCRGCIDARTGRETAALNSVRLLQSLLVLRRRPCSRDGSGLPTPGAFAFHTEFIHVPVGCTCVLPRSV
# B3: IL-17F: recombinant human IL-17F, interleukin 17 isoform (protein, UniProt Q96PD4 31-163, looked up)
# Interleukin-17F: RKIPKVGHTFFQKPESCPPVPGGSMKLDIGIINENQRVSMSRNIESRSTSPWNYTVTWDPNRYPSEVVQAQCRNLGCINAQGKEDISMNSVPIQQETLVVRRKHQGCSVSFQLEKVLVTVGCTCVTPVIHHVQ
# B4: IL-17B: recombinant human IL-17B, interleukin 17 isoform that binds IL-17RB (protein)
# chain: QPRSPKSKRKGQGRPGPLAPGPHQVPLDLVSRMKPYARMEEYERNIEEMVAQLRNSSELAQRKCEVNLQLWMSNKRSLSPWGYSINHDPSRIPVDLPEARCLCLGCVNPFTMQEDRSMVSVPVFSQVPVRRRLCPPPPRTGPCRQRAVMETIAVGCTCIF
# B5: IL-17D: recombinant human IL-17D, interleukin 17 isoform, receptor unknown (protein, UniProt Q8TAD2 16-202, looked up)
# Interleukin-17D: AGAPRAGRRPARPRGCADRPEELLEQLYGRLAAGVLSAFHHTLQLGPREQARNASCPAGGRPADRRFRPPTNLRSVSPWAYRISYDPARYPRYLPEAYCLCRGCLTGLFGEEDVRFRSAPVYMPTVVLRRTPACAGGRSVYTEAYVTIPVGCTCVPEPEKDADSINSSIDKQGAKLLLGPNDAPAGP
# Columns and labels:
# [1] = system: normal human dermal fibroblasts (NHDF); experiment: IL-6 ELISA; format: cell-based; settings: 30 ng/ml recombinant cytokine, 24 h culture, ELISA of supernatant
# Procedure: FIG. 12: IL-17B, IL-17C, IL-17D, IL-17E and IL-17F increase the production of pro-inflammatory IL-6 by normal human dermal fibroblasts (NHDF). NHDF were cultured for 24 h in complete adequate complete medium alone (medium) or in the presence of 30 ng/ml of recombinant human IL-17B, IL-17C, IL-17D, IL-17E or IL-17F as indicated. All isoforms increased the production of pro-inflammatory IL-6 by NHDF.
# Normal human dermal fibroblasts (NHDF) were cultures in complete medium alone or supplemented with 30 ng/ml L of recombinant IL-17B, IL17C or IL17D as indicated. After […] of culture, supernatant are collected. IL-6 ELISA is performed with human IL-6 development kit (Peprotech) following manufacturer's instructions.
# [2] = system: MCF7 breast cancer cells; experiment: Cell proliferation assay ([3H]-TdR); format: cell-based, human; settings: [3H]-TdR incorporation at 72 h, increasing doses of recombinant cytokine (0 to 100 ng/ml)
# Procedure: (§1) FIGS. 7A-7D: IL-17B increases the proliferation of breast cancer cells. T47D (A), MCF7 (B), MDA-MB436 (C) and MDA-MB468 (D) cells were cultured in adequate complete medium supplemented with increasing doses of recombinant human IL-17B as indicated. Cell proliferation was assessed at 72 h using tritiated thymidine ([3H]-TdR) incorporation protocol.
# (§2) FIGS. 10A-10F: IL-17C and IL-17D increase the proliferation of breast and ovarian cancer cells. OAW42 (ovarian, A), MCF7 (breast, B) and T47D (breast, C) cells were cultured in adequate complete medium supplemented with increasing doses of recombinant human IL-17C as indicated. Cell proliferation was assessed at 72 h using tritiated thymidine ([3H]-TdR) incorporation protocol. OAW42 (D), MCF7 (E) and T47D (F) cells were cultured in adequate complete medium supplemented with increasing doses of recombinant human IL-17D as indicated. Cell proliferation was assessed at 72 h using tritiated thymidine ([3H]-TdR) incorporation protocol.
# (§3) HCT116, HT29, and SKOV3 cell lines were cultured in McCoy5a medium (Life technologies) supplemented with 10% FCS, 2% glutamine and 1% antibiotics (Life technologies). MCF7, T47D, MDA-MB231 and BT20 cell lines were cultured in RPMI 1640 medium supplemented as described above. SKMEL5, LOVO, OAW42, MDA-MB435S, MDA-MB436, MDA-MB468 cell lines and normal human dermal fibroblasts (NHDF) were grown in DMEM/F12 medium (Life Technologies) supplemented as described above. MCF10A cell line was maintained in DMEM/F12 medium (Life Technologies) supplemented as described above and with 10 μg/ml insulin, 0.5 μg/ml hydrocortisone, 20 ng/ml EGF and 100 ng/ml cholera toxin. MDA-MB157 cell line was cultured in DMEM medium (Life technologies) supplemented with 10% FCS, 2% glutamine and 1% antibiotics. All cells were kept at 37° C. in 5% CO2 atmosphere incubator.
# (§4) 400 cells are seeded per well in 96 well plate (Corning) and kept overnight in adequate complete medium. Medium is then removed and replaced with adequate complete medium supplemented with 0 to 100 ng/ml of cytokines as indicated. Each condition is performed in triplicate. After 72 h of culture, cells were pulsed for 16 h with tritiated thymidine ([3H]-TdR) (0.5 μCi) and harvested. [3H]-TdR uptake was measured using PerkinElmer microβ2 2450 microplate counter.
# [3] = system: T47D breast cancer cells; experiment: Cell proliferation assay ([3H]-TdR); format: cell-based, human; settings: [3H]-TdR incorporation at 72 h, increasing doses of recombinant cytokine (0 to 100 ng/ml)
# Procedure: as §1, §2, §3, §4
# [4] = system: OAW42 ovarian cancer cells; experiment: Cell proliferation assay ([3H]-TdR); format: cell-based, human; settings: [3H]-TdR incorporation at 72 h, increasing doses of recombinant cytokine (0 to 100 ng/ml)
# Procedure: as §2
# HCT116, HT29, and SKOV3 cell lines were cultured in McCoy5a medium (Life technologies) supplemented with 10% FCS, 2% glutamine and 1% antibiotics (Life technologies). MCF7, T47D, MDA-MB231 and BT20 cell lines were cultured in RPMI 1640 medium supplemented as described above. SKMEL5, LOVO, OAW42, MDA-MB435S, MDA-MB436, MDA-MB468 cell lines and normal human dermal fibroblasts (NHDF) were grown in DMEM/F12 medium (Life Technologies) supplemented as described above. […]
# (§5) 400 cells are seeded per well in 96 well plate (Corning) and kept overnight in adequate complete medium. […] [3H]-TdR uptake was measured using PerkinElmer microβ2 2450 microplate counter.
# [5] = system: MDA-MB231 breast cancer cells; experiment: Matrigel invasion assay; format: cell-based, human; settings: cultured 2 days with 100 ng/ml, Matrigel Invasion Chambers, 22 hours
# Procedure: FIGS. 11A-11B: IL-17C and IL-17D increase invasion of MDA-MB231 breast cancer cells. MDA-MB231 were cultured for 2 days in complete adequate medium alone (medium) or supplemented with 100 ng/ml of recombinant human IL-17B, IL-17C or IL-17D as indicated. Cell invasiveness was then evaluated in Matrigel Invasion Chambers (A, representative photomicrographs, B, quantification).
# (§6) Cells were cultured in adequate complete medium supplemented with 100 ng/ml of recombinant cytokines for 2 days (MDA-MB231) or 14 days (OAW42). Matrigel Invasion Chambers (BD BioCoat™ BD Matrigel™ Invasion Chamber, 24-well Cell culture inserts) were then used to study the invasiveness of cancer cells. 2.10^4 cells are then added to the upper compartment of the chambers in 1% FCS adequate medium alone or supplemented with 100 ng/ml of recombinant cytokines as indicated. Medium supplemented with 10% FCS is added to the lower wells of the chambers. Plates are incubated for 22 hours at 37° C. Transwell filters are then fixed and stained in Giemsa solution following which non-invading cells are removed from the upper surface of the transwell membrane using a cotton swab. Images of cells from three representative fields are captured digitally and the number of cells present on the transwell is counted.
# [6] = system: MDA-MB436 breast cancer cells; experiment: Cell proliferation assay ([3H]-TdR); format: cell-based, human; settings: [3H]-TdR incorporation at 72 h, increasing doses of recombinant cytokine (0 to 100 ng/ml)
# Procedure: as §1, §3, §5
# [7] = system: MDA-MB468 breast cancer cells; experiment: Cell proliferation assay ([3H]-TdR); format: cell-based, human; settings: [3H]-TdR incorporation at 72 h, increasing doses of recombinant cytokine (0 to 100 ng/ml)
# Procedure: as §1, §3, §5
# [8] = system: MDA-MB231 cells; experiment: Cell proliferation assay ([3H]-TdR); format: cell-based, human; settings: MDA-MB231 cells that do not express IL-17RB; data not shown
# Procedure: as §3, §4
# [9] = system: MCF7 breast cancer cells; experiment: Transwell migration assay; format: cell-based, human; settings: 100 ng/ml, 22 hours
# Procedure: (§7) FIGS. 8A-8C: IL-17B increases migration and invasion of breast and ovarian cancer cells. OAW42 (ovarian, A) and MCF7 (breast, B) cells were cultured in complete adequate complete medium alone (Ctl) or supplemented with 100 ng/ml of recombinant human IL-17B (IL-17B) as indicated. Cell migration was evaluated in transwell migration assay. (C) OAW42 cells were cultured for 14 days in adequate complete medium alone (Ctl) or supplemented with 100 ng/ml of recombinant human IL-17B (IL-17B) as indicated. Cell invasiveness was then evaluated in Matrigel Invasion Chambers.
# (§8) Migration Assay 20,000 cells were seeded on the upper chamber of trans well chambers in 1% FCS adequate medium alone (medium) or supplemented with recombinant human IL-17B (100 ng/ml) for 22 hours at 37° C. as indicated. The cells on the transwell were stained with 0.5% crystal violet prior imaging and enumeration. The number of cells migrated onto the transwell were counted (magnification ×4). The graph presents data after quantification in % of cell migration compared to non-treated cells. Results are the mean+/−SEM of two independent experiments, each performed in triplicate.
# [10] = system: OAW42 ovarian cancer cells; experiment: Transwell migration assay; format: cell-based, human; settings: 100 ng/ml, 22 hours
# Procedure: as §7, §8
# [11] = system: OAW42 ovarian cancer cells; experiment: Matrigel invasion assay; format: cell-based, human; settings: cultured 14 days with 100 ng/ml, Matrigel Invasion Chambers, 22 hours
# Procedure: as §7
# as §6, with “Transwell filters are then fixed and stained in Giemsa solution following which non-invading cells are removed from the upper surface of the transwell membrane using a cotton swab.” left out
# [12] = system: breast cancer cell lines that express IL-17RB; experiment: Cytotoxicity assay, docetaxel-induced cell death; format: cell-based; settings: MCF7, T47D, MDA-MB436, BT20, MDA-MB468; cytokine 1 or 10 ng/ml; docetaxel 5, 10, 20 or 40 μg/ml for 7 h
# Procedure: (§9) FIGS. 9A-9F: IL-17B inhibits docetaxel and doxorubicin-induced cell death. MCF7 (A), T47D (B), MDA-MB436 (C), BT20 (D) and MDA-MB468 (E) breast cells were cultured for 48 h in adequate complete medium alone (medium) or treated with recombinant human IL-17B at 1 or 10 ng/ml as indicated. Cells were then culture in Fetal Calf Serum (FCS) free medium supplemented with corresponding concentration of cytokine for 24 h and then further supplemented with docetaxel at 5, 10, 20 or 40 μg/ml as indicated for 7 h. The percentage of cell death (=cytotoxicity) was determined using the Cytotoxicity Detection Kit (Roche). (F) MCF7 cells were cultured for 48 h in adequate complete medium alone (medium) or treated with recombinant human IL-17B at 1 or 10 ng/ml as indicated. […] The percentage of cell death (=cytotoxicity) was determined using the Cytotoxicity Detection Kit (Roche). […]
# (§10) The percentage of cell death (=cytotoxicity) was determined after 7 h of culture in the presence of docetaxel or doxorubicin using the Cytotoxicity Detection Kit (Roche) according to the manufacturer's instructions. […] Optical density was then read at 490 nm. The percentage of cytotoxicity is calculated as followed: %=100×(exp value−control medium value)/(Triton X100 treated cells value−control medium value)
# [13] = system: MCF7 breast cancer cells; experiment: Cytotoxicity assay, doxorubicin-induced cell death; format: cell-based; settings: cytokine 1 or 10 ng/ml, doxorubicin 20 or 30 μM for 7 h
# Procedure: as §9, §10
Molecule,production of pro-inflammatory IL-6 [1],cell proliferation [2],cell proliferation [3],cell proliferation [4],cell invasiveness [5],cell proliferation [6],cell proliferation [7],cell proliferation [8],cell migration [9],cell migration [10],cell invasiveness [11],docetaxel-induced cell death (cytotoxicity) [12],doxorubicin-induced cell death (cytotoxicity) [13]
B1,increase,,,,,,,,,,,,
B2,increase,increased,increased,increased,increased,,,,,,,,
B3,increase,,,,,,,,,,,,
B4,increase,increased,increased,,did not increase,increased,increased,did not stimulate,increased,increased,increased,decreased,protected
B5,increase,increased,,increased,increased,,,,,,,,
